B1: Lysozyme C, P61626 (parent)
chain: MKALIVLGLVLLSVTVQGKVFERCELARTLKRLGMDGYRGISLANWMCLAKWESGYNTRATNYNAGDRSTDYGIFQINSRYWCNDGKTPGAVNACHLSCSALLQDNIADAVACAKRVVRDPQGIRAWVAWRNRCQNRDVRQYVQGCGV

Variants of: B1
Conditions: Homo sapiens, pH 2.8, Thermal, DSC, glycine-HCl 50 mM, reversible: yes, structure 1LZ1, whole UniProt chain shown

Variant	ddG of mutation (higher = less stable) (68.8 °C) [kcal/mol]	heat capacity change of unfolding (68.8 °C) [kcal/mol/K]	unfolding enthalpy (calorimetric) (68.8 °C) [kcal/mol]	Tm [°C]	change of melting temperature, mutant - wild type (higher = more stable) [°C]	heat capacity change of unfolding [kcal/mol/K]
MKALIVLGLVLLSVTVQGKVFERCELARTLKRLGMDGYRGISLANWMCLAKWESGYNTRATNYNPGDRSTDYGIFQINSRYWCNDGKTPGAVNACHLSCSALLQDNIADAVACAKRVVRDPQGIRAWVAWRNRCQNRDVRQYVQGCGV [A65P]	-0.1	1.56	119	69.1	0.3	1.56
MKALIVLGLVLLSVTVQGKVFERCELARTLKRLGMDGYRGISLANWMCLAKWESGYNTRATNYNAGDRSTDYGIFQINSRYWCNDGKTGGAVNACHLSCSALLQDNIADAVACAKRVVRDGQGIRAWVAWRNRCQNRDVRQYVQGCGV [P89G P121G]	1.6	1.58	120	64.3	-4.5	1.58
MKALIVLGLVLLSVTVQGKVFERCELARTLKRLGMDGYRGISLANWMCLAKWESGYNTRATNYNAGDRSTDYGIFQINSRYWCNDGKTPGAVNACHLSCSALLQDNIADAVACAKRVVRDGQGIRAWVAWRNRCQNRDVRQYVQGCGV [P121G]	0.1	1.58	120	68.7	-0.1	1.58
MKALIVLGLVLLSVTVQGKVFERCELARTLKRLGMDGYRGISLANWMCLAKWESGYNTRATNYNAGDRSTDYGIFQINSRYWCNDGKTPGAVNACHLSCSALLQDNIADAVACAKRVVRDPQGIRAWPAWRNRCQNRDVRQYVQGCGV [V128P]	-0.5	1.57	120	70	1.2	1.57
MKALIVLGLVLLSVTVQGKVFERCELARTLKRLGMDGYRGISLANWMCLAKWESGYNTRATNYNAGDRSTDYGIFQINSRYWCNDGKTGGAVNACHLSCSALLQDNIADAVACAKRVVRDPQGIRAWVAWRNRCQNRDVRQYVQGCGV [P89G]	1.6	1.58	121	64.1	-4.7	1.58
MKALIVLGLVLLSVTVQGKVFERCELARTLKRLGMDGYRGISLANWMCLAKWESGYNTRATNYNAGDRSTDYGIFQINSRYWCNDGKTPGAVNACHLSCSALLQDNIAPAVACAKRVVRDPQGIRAWVAWRNRCQNRDVRQYVQGCGV [D109P]	0.4	1.57	115	67.7	-1.1	1.57
